In the RNAGym collection of RNA variant scans (doi:10.7554/elife.80360):

B1: HDV Ribozyme (parent)
chain: GGCCGGCAUGGUCCCAGCCUCCUCGCUGGCGCCGGCUGGGCAACAUUCCGAGGGGACCGUCCCCUCGGUAAUGGCGAAUGGGACCCA

Variants of: B1
Test: self-cleavage, relative activity (ratio to wild type); higher = more cleavage; co-transcriptional

Variant	self-cleavage
GGCCGGCAUGGUCCCAGCCUCCUCGCUGGCUCCGGCUGGGCAACAUUCCGAGGGGACCGUCCCCUCGAUAAUGGCGAAUGGGACCCA	0.38
GGCCGGCAUGGUUCCAGCCUCCUCGCUGGCGCCGGCUGGGCAACAUUCCGAGGGGACCGUCCCCUCGGUAAUGGCGAAUGGCACCCA	0.277
GGCCGGCAUGGACCCAGCCUCCUCGCUGGCGCCGGCUGGGCAACAUUCCGAGGGGACCGUCCCCUCGGUAAUGGCCAAUGGGACCCA	0.443
GGCCGGCAUGGUCCCAGCCUCCUCGCUGGCGCCGGUUGGGCAACAUUCCGUGGGGACCGUCCCCUCGGUAAUGGCGAAUGGGACCCA	0.743
GGCCGGCACGGUCCCAGACUCCUCGCUGGCGCCGGCUGGGCAACAUUCCGAGGGGACCGUCCCCUCGGUAAUGGCGAAUGGGACCCA	0.128
GGCCGGCAUGGUCCCAGCCUCCUCGCUGGCGCCGGCUGGGCAACAUUCCGAGGGGACCGUCCCCUCGGCAAUGGCGAAUGGGACCAA	0.906
GGCCGGCAUGGUCCCAGCCUUCUCGCUGGCGCCGGCUGGGCAACAUUCCGAGGGGACCGUCCCCUCGGUACUGGCGAAUGGGACCCA	0.293
GGCCGGCAUGGUCCCAGCCUCCUCGCUGGCGCCGGCUGGGCAACAGUCCGAGGGGACCGUGCCCUCGGUAAUGGCGAAUGGGACCCA	0.649
GGCCGGCAUGGUCCCAGCCUCCUCGCUGGUGCCGGCUGGGCAACAGUCCGAGGGGACCGUCCCCUCGGUAAUGGCGAAUGGGACCCA	0.231
GGCCCGCAUGGUCCCAGCCUCCUGGCUGGCGCCGGCUGGGCAACAUUCCGAGGGGACCGUCCCCUCGGUAAUGGCGAAUGGGACCCA	0
GGCCGGCAUGGUCCCAGCCGCCUCGCUGGCGCCGGCUGGGCAACAUUCCGAGGGGACCGUCCUCUCGGUAAUGGCGAAUGGGACCCA	0.297
GGCCGCCAUGGUCCCAGCCUCCACGCUGGCGCCGGCUGGGCAACAUUCCGAGGGGACCGUCCCCUCGGUAAUGGCGAAUGGGACCCA	0.0615
GGCCGGCAUGGUCCCAGCCUCCUCGCUGGCGCCGGCUGGGCAACACUCCGAGGGAACCGUCCCCUCGGUAAUGGCGAAUGGGACCCA	0.878
GGCCGGCUUGGUCCCCGCCUCCUCGCUGGCGCCGGCUGGGCAACAUUCCGAGGGGACCGUCCCCUCGGUAAUGGCGAAUGGGACCCA	0.831
GGCCGGCAUGCUCCCAGCCUCCUCGCUGGCGCCGGCUGGGCAACAUUCCGAGGGGACCGUCCCCUCGGUAAUGGGGAAUGGGACCCA	0.133
GGCCGGCAUGGUCCCAGCCUCCUCGCUGGCGCUGGCUGGGCAACAUUCCGAGGGGACCGUCCCAUCGGUAAUGGCGAAUGGGACCCA	0.591
GGCCGGCAUGGUCCCAGCCUCCUCGCUGGCGCCGGCUGGGCAACAUUCCCAGGGGACCGUCCCCUCGGUAAUGGCGAAUGGGACCUA	0.748
GGCCGGCAUGGCCCCAGCCUCCUCGCUGGCGCCGGCUGGGCAACAUUCCGAGGGGACCGUCCCCUCGGUAAUGGAGAAUGGGACCCA	0.166
GGCCGGCAUGGUCCCAGCCUCCUCGCUGGCGCCGUUUGGGCAACAUUCCGAGGGGACCGUCCCCUCGGUAAUGGCGAAUGGGACCCA	0.101
GGCCGGCAUGGUCCCAGCCUCCUCGCUGGCCCCGGCUGGGCAACAUUCCGAGGGGACCGUCCCCUCGGUAAUGGCGAAGGGGACCCA	0
GGCCGGCAUGGUCCCAGCCUCCUCGCUGGCGCCGGCUGCGCAACAUUCCGAGGCGACCGUCCCCUCGGUAAUGGCGAAUGGGACCCA	0.253
GGCCGGCAUGGUCCCAGCCUCCUCGCUGGCGCCGGCUGGGCAACAUUCCGCGGGGACCGUCCCCUCGGAAAUGGCGAAUGGGACCCA	1.13

Variant	self-cleavage
GGCCGGCAUGGUCCCAGACUCCUCGCUGGCGCCGGCUGGGCAACAUUCCGAGGGGAACGUCCCCUCGGUAAUGGCGAAUGGGACCCA	0.219
GGCCGGCAUGGUCCCAGCCUCCUCGCUGGCGCCGGCUGGGCAACACUCCGAGGGGACCGUCCCCUCGAUAAUGGCGAAUGGGACCCA	0.415
GGCCGGCAUGGUCCCAGCCUCCUCGCUAGCGCCGGCUUGGCAACAUUCCGAGGGGACCGUCCCCUCGGUAAUGGCGAAUGGGACCCA	0.0496
GGCUGGCAUGGUCCCAGCCUCCUCGCUGGCGCCGGCUGGGCAACAUUCCGAGGGGACCGUUCCCUCGGUAAUGGCGAAUGGGACCCA	0.717
GGCCGGCAUGGUCCCAGCCUCCUCGCUGGCGCCGGCUGGGCAACAUUCGGAGGGGACCGUCUCCUCGGUAAUGGCGAAUGGGACCCA	0.831
GGCCGGCAUGGUCCCAGCCUCCUCGCUGGCGCCGGCUGGGCAACAUUCCGAGGGCACCGUCCCCUCGGUAAUGGCGAAUGGGACCCA	1.02
GGCCGGCAUGGUCCCAGCCUCCUCGCUGGCGCCGGCUGGGCAACAUUCGGAGGGGACCUUCCCCUCGGUAAUGGCGAAUGGGACCCA	0.889
GGCCGGCAUCGUCCCAGCCUCCUCGCUGGCGCCGGCUGGGCAACAUUACGAGGGGACCGUCCCCUCGGUAAUGGCGAAUGGGACCCA	0.853
GGCCGGCAAGGUCCCAGCCUCCUCGCUGGCGCCGGCUGGGCAACAUUCCGAGGGGACCGUCCCCUCGGUAAUGGCGAAUGGGAACCA	0.886
GGCCGGCAUGGUCCCAGCCUCCUCGCUGGCGCCGGCUGGGCAACAUUCCGAGGGGACCGGCCCCUCGGUAAUGGCGAAUAGGACCCA	0.286
GGCCGGCAUGGUCCCAGCCUCCACGCUGGCGCCGGCUGGGCAACAUUCCGAGGGGACCGUCCCCUCGAUAAUGGCGAAUGGGACCCA	0.906
GGCCGGCAUGGUCCCAGCCUCCUCUCUCGCGCCGGCUGGGCAACAUUCCGAGGGGACCGUCCCCUCGGUAAUGGCGAAUGGGACCCA	0.106
GGCCGGCAUGGUCCCAGCCUCCUCGCUGGUGCCGGCUGGGCAACAUUCCGAGGGGACCGUCCCCUCGGUAAUGGAGAAUGGGACCCA	0.0959
GGCCGGCAUGGUCCCAGCCUCCUCGCUGGCGCCGGCUGGGCAACAUUCCGAGGGGACCUUCCCCUCGGUAAUGGCGAAGGGGACCCA	0.692
GGCCGGCAUGGUCCCAGCCUCCUCGCUGGCGCGGGCUGGGCAACAUUCCGAGGGGACCGUCCCCUCGGUAAUGUCGAAUGGGACCCA	0.173
GGCCGGCAUGGUCCCAGCCUCCGCGCUGGCGCCGGCUGGGCAACAUUCCGAGGGGACCGUCCCCUCGGAAAUGGCGAAUGGGACCCA	0.499
GGCCGGCAUGGUCCCAGCCUCCUCGCUGGCGCCGCCUGGGCAACAUUCCGAGGUGACCGUCCCCUCGGUAAUGGCGAAUGGGACCCA	0.326
GGCCGGCCUGGUCCCAGCCUACUCGCUGGCGCCGGCUGGGCAACAUUCCGAGGGGACCGUCCCCUCGGUAAUGGCGAAUGGGACCCA	0.0449
GGCCGGCAUGGUCCCAACCUCCUCGCUGGCGCCGGCUGGGCAACAUUCCGAGGGGACCGUCCCCUCGGUAAAGGCGAAUGGGACCCA	0.219
GGCCGGCAUGGUCCCAGUCUCCUCGCUGGCGCCGGCUGGGCAACAUUCCGAGGGGACCGUCCCCUCGGUAAUGGCGAAUGGGACCCA	0.732
GGCCCGCAUGGUCCCAGCCUCCUCGCUGGCGCCGGCUGGGCAACAUUCCGAUGGGACCGUCCCCUCGGUAAUGGCGAAUGGGACCCA	0.23
GGCCGGCAUGGUCCCAGCCUCCUCGCUGGCGCCGGCUGGGCAACAUUCCGAGGGGAUCGGCCCCUCGGUAAUGGCGAAUGGGACCCA	0.702

Variant	self-cleavage
GGCCGGCAUGGUCCCAGUCUCCUCGCUGGCGCCGGCUGGGCAACAUUCCGAGGGGACCGUCCCCUCGGUAAUGGCGAAUGGCACCCA	0.166
GGCCGGCAUGGUCCGAGCCUCCUCGCUGGCGCCGGCUGGGCAACAUUCCGAGGGGACCGUCCCCUCGGUAAUGGCAAAUGGGACCCA	0.665
GGCCGGCAUGGUCCCAGCCUCCACGCUGGCGCCGGCUGGGCAACAUUCCGAGGGGCCCGUCCCCUCGGUAAUGGCGAAUGGGACCCA	0.929
GGCCGGCAUGGUCCCAGCCUCCUCGCUGGCGCCGGCUGGGCAACAUUCCGAUGGGACCGUCCCCUCGGUAAUGGCGAAUUGGACCCA	0.312
GGCCGGCAUGGUCCCAGCCUCCUCGCUGGCGACGGCUGGGCAACAUUCCGAGGGGAACGUCCCCUCGGUAAUGGCGAAUGGGACCCA	0.295
GGCCGGCAUGGUCCCAGCCGGCUCGCUGGCGCCGGCUGGGCAACAUUCCGAGGGGACCGUCCCCUCGGUAAUGGCGAAUGGGACCCA	0
GGCCGGCAUGGUGCCAGCCUCCUCGCUGGCGCCGGCGGGGCAACAUUCCGAGGGGACCGUCCCCUCGGUAAUGGCGAAUGGGACCCA	0
GGCCGGCAUGGUCCCAGCCUCCUCGCUGGCGCCGGCUGGGCAACAUUCCGAAGGGACCGUCCCCCCGGUAAUGGCGAAUGGGACCCA	0.954
GGCCGGCAUGGUCCCAGCCUCCUCGCUGGCGCCGGCUGGGCAACAUUCCGAGGGGACCGUCCCCUCGGUAAUGGCGAAAGGGAACCA	0.539
GGCCGGCAUGGUCCCAUCCUCCUCGCUGGCGCCGGCUGUGCAACAUUCCGAGGGGACCGUCCCCUCGGUAAUGGCGAAUGGGACCCA	0.126
GGCCGGCAUGGUCCCAGCCUCCUCGCUGGCGCCGGCUGGGCACCAUUCCGAGGGGACCGUCCCCUCGGUAAUGGCGAGUGGGACCCA	0.0978
GGCCGGCAUGGUCCCAGCCUCCUCGCUGGCGCCGGCUGGGCAGCAUUCCGAGGGGACCGUCCCCUCGGUAAUGUCGAAUGGGACCCA	0.243
GGCCGGCAUGGUCCCAGCCUCCUCGCUGGCGCCGGCUGGGCAGCAUUCCGAGGGGACCGUCACCUCGGUAAUGGCGAAUGGGACCCA	0.554
GGCCUGCAUGGUCCCAGCCUCCUCGCUGGCGCCGGCUGGGCAACAUUCCGAGGGGACCGUCCACUCGGUAAUGGCGAAUGGGACCCA	0.332
GGCCGGCAUGGUCCCAGCCUCCUCGCUGGCGCCGGCUGGGCAACAUUCCGAGGGGAACGUCCCCUCGGUAAUGGCGAAUGGGACCCG	1.07
GGCCGGCAUGGUCCCAGACUCCUCGCUGGCGCCGGCUGGUCAACAUUCCGAGGGGACCGUCCCCUCGGUAAUGGCGAAUGGGACCCA	0.0631
GGCCGGCAUGGUCCCAGCCUCCUCGCUGGCGCCGGCUGGGCAACAUUCCGAGGGGACCGUCCCCUCGGUAAUGGCGAUUGGGACCAA	0.208
GGCCGGCAUGGUCCCAGCCUCCUCGUUGGCGCCGGCUGGGCAACAUUCCGAGGGUACCGUCCCCUCGGUAAUGGCGAAUGGGACCCA	0.929
GGCCGGAAUGGUCCCACCCUCCUCGCUGGCGCCGGCUGGGCAACAUUCCGAGGGGACCGUCCCCUCGGUAAUGGCGAAUGGGACCCA	0
GGACGGCAUGGUCCCAUCCUCCUCGCUGGCGCCGGCUGGGCAACAUUCCGAGGGGACCGUCCCCUCGGUAAUGGCGAAUGGGACCCA	0.0665
